According to US20250382344A1, “Soluble GLP1/GIP/NPY2 Receptor Triple Agonists” (Boehringer Ingelheim International GmH, priority 2024, published 2025):
Positions count from the first letter of the chain named. Where two headings read alike, the source gives them in different places. *1 amine or outer side, *2 acyl side, *3 side chain or, on linkers, in order; H or OH if unused. Where no end group is shown, it is not given here. Side-chain parts run from the residue outwards. [ ]: non-standard residue; d: D form. The star is where a group is joined. C18 diacid = O=C(O)CCCCCCCCCCCCCCCCC(=O)*; γGlu = O=C(O)[C@H](CCC(=O)[*:2])N[*:1]; εLys = N[C@@H](CCCCN[*:1])C(=O)[*:2]; NMeQ = CN[C@@H](CCC(N)=O)C(=O)O; AEEA = NCCOCCOCC(=O)O; Aib = CC(C)(N)C(=O)O; Ahx = NCCCCCC(=O)O

T1: hGIPR (Homo sapiens, UniProt P48546)
T1 construct: expressed in transfected cells; host or cells: CHO CRE-luciferase reporter cells
T1 sequence (P48546 22-466): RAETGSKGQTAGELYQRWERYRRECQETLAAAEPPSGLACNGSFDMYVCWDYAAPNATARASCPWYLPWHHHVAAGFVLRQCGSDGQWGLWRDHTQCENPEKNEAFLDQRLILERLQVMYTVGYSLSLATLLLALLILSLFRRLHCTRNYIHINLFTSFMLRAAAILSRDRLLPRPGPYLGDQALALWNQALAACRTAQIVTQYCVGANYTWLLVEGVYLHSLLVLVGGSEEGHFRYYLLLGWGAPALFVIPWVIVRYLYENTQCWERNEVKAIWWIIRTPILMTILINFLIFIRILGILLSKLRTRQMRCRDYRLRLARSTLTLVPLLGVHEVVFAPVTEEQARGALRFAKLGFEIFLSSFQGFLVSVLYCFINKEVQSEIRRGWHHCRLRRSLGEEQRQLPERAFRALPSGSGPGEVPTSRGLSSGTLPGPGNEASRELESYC

T2: human neuropeptide Y2 receptor (human, UniProt P49146 1-381)
T2 sequence (looked up): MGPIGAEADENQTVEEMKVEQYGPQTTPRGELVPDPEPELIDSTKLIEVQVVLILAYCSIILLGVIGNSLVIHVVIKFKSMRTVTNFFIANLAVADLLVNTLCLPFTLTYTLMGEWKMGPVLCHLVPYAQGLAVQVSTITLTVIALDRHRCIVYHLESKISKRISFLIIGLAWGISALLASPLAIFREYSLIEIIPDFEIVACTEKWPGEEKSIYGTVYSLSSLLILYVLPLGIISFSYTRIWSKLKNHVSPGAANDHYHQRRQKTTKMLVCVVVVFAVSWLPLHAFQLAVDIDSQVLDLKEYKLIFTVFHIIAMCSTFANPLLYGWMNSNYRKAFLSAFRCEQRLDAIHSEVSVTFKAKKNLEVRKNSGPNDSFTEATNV

B1: Compound 38 (peptide)
peptide: YXEGTFTSDYSIXLEKQAQXAFVRHLINKXTRQRY
modifications: Aib at 2, 13, 20, 30; Lys29 epsilon-amino acylated with C18DA-gGlu-gGlu-gGlu-gGlu-gGlu-gGlu-gGlu; C-terminal amide
B2: Compound 49 (peptide)
peptide: B1 peptide
modifications: Aib at 2, 20, 30; aMeL at 13; Lys29 epsilon-amino acylated with C20DA-gGlu-gGlu-gGlu-gGlu-gGlu-gGlu; C-terminal amide
B3: Compound 10 (peptide)
peptide: B1 peptide with Q19E
modifications: Aib at 2, 13, 20, 30; Lys29 epsilon-amino acylated with C18DA-gGlu-gGlu-gGlu-gGlu-gGlu-gGlu-eLys; C-terminal amide

How the values were obtained:
hGIPR = target: T1, hGIPR; assay: hGIPR CreLuc assay in 0.5% and 100% plasma (CHO CRE-luciferase reporter cells); assay type: cell-based
[1] = Solubility in 0.1 M phosphate buffer at pH 7; assay type: physicochemical; details: 0.1 M phosphate buffer at pH 7, 10 mg/mL final peptide concentration, shaking 2 hours at room temperature, peptides as TFA-salts; measured sample pH 6.5-7.0
[2] = target: T2, human neuropeptide Y2 receptor; assay: cell-based or functional assay
[3] = 0.5% human plasma, read-out: hGIPR 0.5% hP

Row | Molecule | EC50 (hGIPR; [3]) | solubility at 2 h [1] | EC50 (hGIPR; 100% human plasma, read-out: hGIPR 100% hP) | EC50, CreLuc reporter, 0.5% hP [2] | EC50, CreLuc reporter, 100% hP [2]
1 | CC[C@H](C)[C@H](NC(=O)[C@H](CC(C)C)NC(=O)[C@H](Cc1c[nH]cn1)NC(=O)[C@H](CCCNC(=N)N)NC(=O)[C@@H](NC(=O)[C@H](Cc1ccccc1)NC(=O)[C@H](C)NC(=O)C(C)(C)NC(=O)[C@H](CCC(N)=O)NC(=O)[C@H](C)NC(=O)[C@H](CCC(N)=O)NC(=O)[C@H](CCC(=O)O)NC(=O)[C@H](CC(=O)O)NC(=O)[C@H](CC(C)C)NC(=O)C(C)(C)NC(=O)[C@@H](NC(=O)[C@H](CO)NC(=O)[C@H](Cc1ccc(O)cc1)NC(=O)[C@H](CC(=O)O)NC(=O)[C@H](CO)NC(=O)[C@@H](NC(=O)[C@H](Cc1ccccc1)NC(=O)[C@@H](NC(=O)CNC(=O)[C@H](CCC(=O)O)NC(=O)C(C)(C)NC(=O)[C@@H](N)Cc1ccc(O)cc1)[C@@H](C)O)[C@@H](C)O)[C@@H](C)CC)C(C)C)C(=O)N[C@@H](CC(N)=O)C(=O)N[C@@H](CCCCNC(=O)[C@@H](N)CCCCNC(=O)[C@@H](N)CCCCNC(=O)CC[C@H](NC(=O)CC[C@H](NC(=O)CC[C@H](NC(=O)CC[C@H](NC(=O)CC[C@H](NC(=O)CCCCCCCCCCCCCCCCCCC(=O)O)C(=O)O)C(=O)O)C(=O)O)C(=O)O)C(=O)O)C(=O)NC(C)(C)C(=O)N[C@H](C(=O)N[C@@H](CCCNC(=N)N)C(=O)N[C@@H](CCC(N)=O)C(=O)N[C@@H](CCCNC(=N)N)C(=O)N[C@@H](Cc1ccc(O)cc1)C(N)=O)[C@@H](C)O [Compound 155, Y-Aib-E-G-T-F-T-S-D-Y-S-I-Aib-L-D-E-Q-A-Q-Aib-A-F-V-R-H-L-I-N-K(1,3)-Aib-T-R-Q-R-Y-NH2.C20DA-gGlu-gGlu-gGlu-gGlu-gGlu-eLys-eLys(1,2)] | 0.7 nM | 8900 µg/mL |  |  | 
2 | CC[C@H](C)[C@H](NC(=O)[C@H](CC(C)C)NC(=O)[C@H](Cc1c[nH]cn1)NC(=O)[C@H](CCCNC(=N)N)NC(=O)[C@@H](NC(=O)[C@H](Cc1ccccc1)NC(=O)[C@H](C)NC(=O)C(C)(C)NC(=O)[C@H](CCC(N)=O)NC(=O)[C@H](C)NC(=O)[C@H](CCC(N)=O)NC(=O)[C@H](CCCCN)NC(=O)[C@H](CCC(=O)O)NC(=O)[C@H](CC(C)C)NC(=O)C(C)(C)NC(=O)[C@@H](NC(=O)[C@H](CO)NC(=O)[C@H](Cc1ccc(O)cc1)NC(=O)[C@H](CC(=O)O)NC(=O)[C@H](CO)NC(=O)[C@@H](NC(=O)[C@H](Cc1ccccc1)NC(=O)[C@@H](NC(=O)CNC(=O)[C@H](CCC(=O)O)NC(=O)C(C)(C)NC(=O)[C@@H](N)Cc1ccc(O)cc1)[C@@H](C)O)[C@@H](C)O)[C@@H](C)CC)C(C)C)C(=O)N[C@@H](CC(N)=O)C(=O)N[C@@H](CCCCNC(=O)[C@@H](N)CCCCNC(=O)CC[C@H](NC(=O)CC[C@H](NC(=O)CC[C@H](NC(=O)CC[C@H](NC(=O)CC[C@H](NC(=O)CC[C@H](NC(=O)CCCCCCCCCCCCCCCCC(=O)O)C(=O)O)C(=O)O)C(=O)O)C(=O)O)C(=O)O)C(=O)O)C(=O)N[C@@H](C)C(=O)N[C@H](C(=O)N[C@@H](CCCNC(=N)N)C(=O)N[C@@H](CCC(N)=O)C(=O)N[C@@H](CCCNC(=N)N)C(=O)N[C@@H](Cc1ccc(O)cc1)C(N)=O)[C@@H](C)O [Compound 159, Y-Aib-E-G-T-F-T-S-D-Y-S-I-Aib-L-E-K-Q-A-Q-Aib-A-F-V-R-H-L-I-N-K(1,3)-A-T-R-Q-R-Y-NH2.C18DA-gGlu-gGlu-gGlu-gGlu-gGlu-gGlu-eLys(1,2)] | 0.2 nM | 9600 µg/mL |  |  | 
3 | CC[C@H](C)[C@H](NC(=O)[C@H](CC(C)C)NC(=O)[C@H](Cc1c[nH]cn1)NC(=O)[C@H](CCCNC(=N)N)NC(=O)[C@@H](NC(=O)[C@H](Cc1ccccc1)NC(=O)[C@H](C)NC(=O)C(C)(C)NC(=O)[C@H](CCC(N)=O)NC(=O)[C@H](C)NC(=O)[C@H](CCC(N)=O)NC(=O)[C@H](CCCCN)NC(=O)[C@H](CCC(=O)O)NC(=O)[C@H](CC(C)C)NC(=O)C(C)(C)NC(=O)[C@@H](NC(=O)[C@H](CO)NC(=O)[C@H](Cc1ccc(O)cc1)NC(=O)[C@H](CC(=O)O)NC(=O)[C@H](CO)NC(=O)[C@@H](NC(=O)[C@H](Cc1ccccc1)NC(=O)[C@@H](NC(=O)CNC(=O)[C@H](CCC(=O)O)NC(=O)C(C)(C)NC(=O)[C@@H](N)Cc1ccc(O)cc1)[C@@H](C)O)[C@@H](C)O)[C@@H](C)CC)C(C)C)C(=O)N[C@@H](CC(N)=O)C(=O)N[C@@H](CCCCNC(=O)CC[C@H](NC(=O)CC[C@H](NC(=O)CC[C@H](NC(=O)[C@@H](N)CCCCNC(=O)CC[C@H](NC(=O)CC[C@H](NC(=O)CC[C@H](NC(=O)CCCCCCCCCCCCCCCCC(=O)O)C(=O)O)C(=O)O)C(=O)O)C(=O)O)C(=O)O)C(=O)O)C(=O)NC(C)(C)C(=O)N[C@H](C(=O)N[C@@H](CCCNC(=N)N)C(=O)N[C@@H](CCC(N)=O)C(=O)N[C@@H](CCCNC(=N)N)C(=O)N[C@@H](Cc1ccc(O)cc1)C(N)=O)[C@@H](C)O [Compound 168, Y-Aib-E-G-T-F-T-S-D-Y-S-I-Aib-L-E-K-Q-A-Q-Aib-A-F-V-R-H-L-I-N-K(1,3)-Aib-T-R-Q-R-Y-NH2.C18DA-gGlu-gGlu-gGlu-eLys-gGlu-gGlu-gGlu(1,2)] | 0.2 nM | 8200 µg/mL |  |  | 
4 | CC[C@H](C)[C@H](NC(=O)[C@H](CC(C)C)NC(=O)[C@H](Cc1c[nH]cn1)NC(=O)[C@H](CCCNC(=N)N)NC(=O)[C@@H](NC(=O)[C@H](Cc1ccccc1)NC(=O)[C@H](C)NC(=O)C(C)(C)NC(=O)[C@H](CCC(N)=O)NC(=O)[C@H](C)NC(=O)[C@H](CCC(N)=O)NC(=O)[C@H](CCCCN)NC(=O)[C@H](CCC(=O)O)NC(=O)[C@H](CC(C)C)NC(=O)C(C)(C)NC(=O)[C@@H](NC(=O)[C@H](CO)NC(=O)[C@H](Cc1ccc(O)cc1)NC(=O)[C@H](CC(=O)O)NC(=O)[C@H](CO)NC(=O)[C@@H](NC(=O)[C@H](Cc1ccccc1)NC(=O)[C@@H](NC(=O)CNC(=O)[C@H](CCC(=O)O)NC(=O)C(C)(C)NC(=O)[C@@H](N)Cc1ccc(O)cc1)[C@@H](C)O)[C@@H](C)O)[C@@H](C)CC)C(C)C)C(=O)N[C@@H](CC(N)=O)C(=O)N[C@@H](CCCCNC(=O)CCCCCNC(=O)CC[C@H](NC(=O)CCCCCNC(=O)CC[C@H](NC(=O)CC[C@H](NC(=O)CC[C@H](NC(=O)CC[C@H](NC(=O)CCCCCCCCCCCCCCCCCCC(=O)O)C(=O)O)C(=O)O)C(=O)O)C(=O)O)C(=O)O)C(=O)NC(C)(C)C(=O)N[C@H](C(=O)N[C@@H](CCCNC(=N)N)C(=O)N[C@@H](CCC(N)=O)C(=O)N[C@@H](CCCNC(=N)N)C(=O)N[C@@H](Cc1ccc(O)cc1)C(N)=O)[C@@H](C)O [Compound 175, Y-Aib-E-G-T-F-T-S-D-Y-S-I-Aib-L-E-K-Q-A-Q-Aib-A-F-V-R-H-L-I-N-K(1,3)-Aib-T-R-Q-R-Y-NH2.C20DA-gGlu-gGlu-gGlu-gGlu-AHX-gGlu-AHX(1,2)] | 0.2 nM | 8400 µg/mL | 5.6 nM |  | 
5 | Y[Aib]EGTFTSDYSI[Aib]LEKQAQ[Aib]AFVRHLINK([γGlu-γGlu-γGlu-γGlu-γGlu-γGlu-C18 diacid])[Aib]TR[NMeQ]RY-NH2 [Compound 2] |  |  |  | 89.9 nM | 258 nM
6 | Y[Aib]EGTFTSDYSI[Aib]LEKQAQ[Aib]EFVRHLINK([εLys-γGlu-γGlu-γGlu-γGlu-γGlu-γGlu-γGlu-C18 diacid])[Aib]TRQRY-NH2 [Compound 30] |  |  |  | 33.9 nM | 81.1 nM
7 | Y[Aib]EGTFTSDYSI[Aib]LEKQAQ[Aib]AFVRHLINK([γGlu-γGlu-εLys-γGlu-γGlu-γGlu-γGlu-C18 diacid])[Aib]TRQRY-NH2 [Compound 34] |  |  |  | 14.6 nM | 28 nM
8 | B1 |  |  |  |  | 141 nM
9 | Y[Aib]EGTFTSDYSI[Aib]LEKQAQ[Aib]AFVRHLINK([AEEA-γGlu-γGlu-γGlu-γGlu-γGlu-γGlu-C18 diacid])[Aib]TRQRY-NH2 [Compound 47] |  |  |  | 19.9 nM | 72.6 nM
10 | B2 |  |  |  |  | 763 nM
11 | Y[Aib]EGTFTSDYSI[Aib]LEKQAQ[Aib]AFVRHLINK([Ahx-γGlu-γGlu-γGlu-γGlu-γGlu-γGlu-C18 diacid])[Aib]TRQRY-NH2 [Compound 9] |  |  |  | 25.1 nM | 75.4 nM
12 | B3 |  |  |  | 26.3 nM | 28.2 nM
